The values below come from paper PMC9958131 (Nature Communications, 2023).

The chains are these.
B1: Fibrinogen a: α chain of human fibrinogen (Cayman Chemical), RA autoantigen; native or citrullinated by PAD2 or PAD4 (protein)
chain: MFSMRIVCLVLSVVGTAWTADSGEGDFLAEGGGVRGPRVVERHQSACKDSDWPFCSDEDWNYKCPSGCRMKGLIDEVNQDFTNRINKLKNSLFEYQKNNKDSHSLTTNIMEILRGDFSSANNRDNTYNRVSEDLRSRIEVLKRKVIEKVQHIQLLQKNVRAQLVDMKRLEVDIDIKIRSCRGSCSRALAREVDLKDYEDQQKQLEQVIAKDLLPSRDRQHLPLIKMKPVPDLVPGNFKSQLQKVPPEWKALTDMPQMRMELERPGGNEITRGGSTSYGTGSETESPRNPSSAGSWNSGSSGPGSTGNRNPGSSGTGGTATWKPGSSGPGSTGSWNSGSSGTGSTGNQNPGSPRPGSTGTWNPGSSERGSAGHWTSESSVSGSTGQWHSESGSFRPDSPGSGNARPNNPDWGTFEEVSGNVSPGTRREYHTEKLVTSKGDKELRTGKEKVTSGSTTTTRRSCSKTVTKTVIGPDGHKEVTKEVVTSEDGSDCPEAMDLGTL
B2: P03971 (protein, UniProt P03971 1-560, looked up)
chain: MRDLPLTSLALVLSALGALLGTEALRAEEPAVGTSGLIFREDLDWPPGSPQEPLCLVALGGDSNGSSSPLRVVGALSAYEQAFLGAVQRARWGPRDLATFGVCNTGDRQAALPSLRRLGAWLRDPGGQRLVVLHLEEVTWEPTPSLRFQEPPPGGAGPPELALLVLYPGPGPEVTVTRAGLPGAQSLCPSRDTRYLVLAVDRPAGAWRGSGLALTLQPRGEDSRLSTARLQALLFGDDHRCFTRMTPALLLLPRSEPAPLPAHGQLDTVPFPPPRPSAELEESPPSADPFLETLTRLVRALRVPPARASAPRLALDPDALAGFPQGLVNLSDPAALERLLDGEEPLLLLLRPTAATTGDPAPLHDPTSAPWATALARRVAAELQAAAAELRSLPGLPPATAPLLARLLALCPGGPGGLGDPLRALLLLKALQGLRVEWRGRDPRGPGRAQRSAGATAADGPCALRELSVDLRAERSVLIPETYQANNCQGVCGWPQSDRNPRYGNHVVLLLKMQVRGAALARPPCCVPTAYAGKLLISLSEERISAHHVPNMVATECGCR
modifications: full-length
B3: A0A0G2JMB2 (protein)
chain: ASPTSPKVFPLSLDSTPQDGNVVVACLVQGFFPQEPLSVTWSESGQNVTARNFPPSQDASGDLYTTSSQLTLPATQCPDGKSVTCHVKHYTNPSQDVTVPCPVPPPPPCCHPRLSLHRPALEDLLLGSEANLTCTLTGLRDASGATFTWTPSSGKSAVQGPPERDLCGCYSVSSVLPGCAQPWNHGETFTCTAAHPELKTPLTANITKSGNTFRPEVHLLPPPSEELALNELVTLTCLARGFSPKDVLVRWLQGSQELPREKYLTWASRQEPSQGTTTFAVTSILRVAAEDWKKGDTFSCMVGHEALPLAFTQKTIDRLAGKPTHVNVSVVMAEVDGTCY
B4: C9JEU5 (protein)
chain: MSWSLHPRNLILYFYALLFLSSTCVAYVATRDNCCILDERFGSYCPTTCGIADFLSTYQTKVDKDLQSLEDILHQVENKTSEVKQLIKAIQLTYNPDESSKPNMIDAATLKSRKMLEEIMKYEASILTHDSSIRYLQEIYNSNNQKIVNLKEKVAQLEAQCQEPCKDTVQIHDITGKVKVDSPSLDCQDIANKGAKQSGLYFIKPLKANQQFLVYCEIDGSGNGWTVFQKRLDGSVDFKKNWIQYKEGFGHLSPTGTTEFWLGNEKIHLISTQSAIPYALRVELEDWNGRTSTADYAMFKVGPEADKYRLTYAYFAGGDAGDAFDGFDFGDDPSDKFFTSHNGMQFSTWDNDNDKFEGNCAEQDGSGWWMNKCHAGHLNGVYYQGGTYSKASTPNGYDNGIIWATWKTRWYSMKKTTMKIIPFNRLTIGEGQQHHLGGAKQAGDV
B5: P04003 (protein, UniProt P04003 1-597, looked up)
chain: MHPPKTPSGALHRKRKMAAWPFSRLWKVSDPILFQMTLIAALLPAVLGNCGPPPTLSFAAPMDITLTETRFKTGTTLKYTCLPGYVRSHSTQTLTCNSDGEWVYNTFCIYKRCRHPGELRNGQVEIKTDLSFGSQIEFSCSEGFFLIGSTTSRCEVQDRGVGWSHPLPQCEIVKCKPPPDIRNGRHSGEENFYAYGFSVTYSCDPRFSLLGHASISCTVENETIGVWRPSPPTCEKITCRKPDVSHGEMVSGFGPIYNYKDTIVFKCQKGFVLRGSSVIHCDADSKWNPSPPACEPNSCINLPDIPHASWETYPRPTKEDVYVVGTVLRYRCHPGYKPTTDEPTTVICQKNLRWTPYQGCEALCCPEPKLNNGEITQHRKSRPANHCVYFYGDEISFSCHETSRFSAICQGDGTWSPRTPSCGDICNFPPKIAHGHYKQSSSYSFFKEEIIYECDKGYILVGQAKLSCSYSHWSAPAPQCKALCRKPELVNGRLSVDKDQYVEPENVTIQCDSGYGVVGPQSITCSGNRTWYPEVPKCEWETPEGCEQVLTGKRLMQCLPNPEDVKMALEVYKLSLEIEQLELQRDSARQSTLDKEL
modifications: full-length
B6: Q16610 (protein)
chain: MGTTARAALVLTYLAVASAASEGGFTATGQRQLRPEHFQEVGYAAPPSPPLSRSLPMDHPDSSQHGPPFEGQSQVQPPPSQEATPLQQEKLLPAQLPAEKEVGPPLPQEAVPLQKELPSLQHPNEQKEGTPAPFGDQSHPEPESWNAAQHCQQDRSQGGWGHRLDGFPPGRPSPDNLNQICLPNRQHVVYGPWNLPQSSYSHLTRQGETLNFLEIGYSRCCHCRSHTNRLECAKLVWEEAMSRFCEAEFSVKTRPHWCCTRQGEARFSCFQEEAPQPHYQLRACPSHQPDISSGLELPFPPGVPTLDNIKNICHLRRFRSVPRNLPATDPLQRELLALIQLEREFQRCCRQGNNHTCTWKAWEDTLDKYCDREYAVKTHHHLCCRHPPSPTRDECFARRAPYPNYDRDILTIDIGRVTPNLMGHLCGNQRVLTKHKHIPGLIHNMTARCCDLPFPEQACCAEEEKLTFINDLCGPRRNIWRDPALCCYLSPGDEQVNCFN
B7: Q9UM07 (protein)
chain: MAQGTLIRVTPEQPTHAVCVLGTLTQLDICSSAPEDCTSFSINASPGVVVDIAHGPPAKKKSTGSSTWPLDPGVEVTLTMKVASGSTGDQKVQISYYGPKTPPVKALLYLTGVEISLCADITRTGKVKPTRAVKDQRTWTWGPCGQGAILLVNCDRDNLESSAMDCEDDEVLDSEDLQDMSLMTLSTKTPKDFFTNHTLVLHVARSEMDKVRVFQATRGKLSSKCSVVLGPKWPSHYLMVPGGKHNMDFYVEALAFPDTDFPGLITLTISLLDTSNLELPEAVVFQDSVVFRVAPWIMTPNTQPPQEVYACSIFENEDFLKSVTTLAMKAKCKLTICPEEENMDDQWMQDEMEIGYIQAPHKTLPVVFDSPRNRGLKEFPIKRVMGPDFGYVTRGPQTGGISGLDSFGNLEVSPPVTVRGKEYPLGRILFGDSCYPSNDSRQMHQALQDFLSAQQVQAPVKLYSDWLSVGHVDEFLSFVPAPDRKGFRLLLASPRSCYKL
B8: Q9NSB2 (protein)
chain: MSCRSYRVSSGHRVGNFSSCSAMTPQNLNRFRANSVSCWSGPGFRGLGSFGSRSVITFGSYSPRIAAVGSRPIHCGVRFGAGCGMGFGDGRGVGLGPRADSCVGLGFGAGSGIGYGFGGPGFGYRVGGVGVPAAPSITAVTVNKSLLTPLNLEIDPNAQRVKKDEKEQIKTLNNKFASFIDKVRFLEQQNKLLETKWSFLQEQKCIRSNLEPLFESYITNLRRQLEVLVSDQARLQAERNHLQDVLEGFKKKYEEEVVCRANAENEFVALKKDVDAAFMNKSDLEANVDTLTQEIDFLKTLYMEEIQLLQSHISETSVIVKMDNSRDLNLDGIIAEVKAQYEEVARRSRADAEAWYQTKYEEMQVTAGQHCDNLRNIRNEINELTRLIQRLKAEIEHAKAQRAKLEAAVAEAEQQGEATLSDAKCKLADLECALQQAKQDMARQLCEYQELMNAKLGLDIEIATYRRLLEGEESRLCEGVGPVNISVSSSRGGLVCGPEP
B9: P0DPH8 (protein, UniProt P0DPH8 1-450, looked up)
chain: MRECISIHVGQAGVQIGNACWELYCLEHGIQPDGQMPSDKTIGGGDDSFNTFFSETGAGKHVPRAVFVDLEPTVVDEVRTGTYRQLFHPEQLITGKEDAANNYARGHYTIGKEIVDLVLDRIRKLADLCTGLQGFLIFHSFGGGTGSGFASLLMERLSVDYGKKSKLEFAIYPAPQVSTAVVEPYNSILTTHTTLEHSDCAFMVDNEAIYDICRRNLDIERPTYTNLNRLIGQIVSSITASLRFDGALNVDLTEFQTNLVPYPRIHFPLATYAPVISAEKAYHEQLSVAEITNACFEPANQMVKCDPRHGKYMACCMLYRGDVVPKDVNAAIATIKTKRTIQFVDWCPTGFKVGINYQPPTVVPGGDLAKVQRAVCMLSNTTAIAEAWARLDHKFDLMYAKRAFVHWYVGEGMEEGEFSEAREDLAALEKDYEEVGVDSVEAEAEEGEEY
modifications: full-length
B10: Interferon alpha-21 (protein, UniProt P01568 24-189, looked up)
Interferon alpha-21: CDLPQTHSLGNRRALILLAQMGRISPFSCLKDRHDFGFPQEEFDGNQFQKAQAISVLHEMIQQTFNLFSTKDSSATWEQSLLEKFSTELNQQLNDLEACVIQEVGVEETPLMNVDSILAVKKYFQRITLYLTEKKYSPCAWEVVRAEIMRSFSLSKIFQERLRRKE

The test system of the first data set is PAD2 and PAD4. Description: Citrullination site mapping of fibrinogen and vimentin by trypsin digestion and mass spectrometry (protein-level sheet, one search over native, PAD2-cit and PAD4-cit samples). It is filed as biochemical, human. The conditions noted are these: modified residues found per protein; Deamidated [R..] = deamidated (citrullinated) arginine positions; trypsin digest, Sequest HT; not split by sample (native, PAD2-citrullinated, PAD4-citrullinated fibrinogen and vimentin). From the text: (§1) Description: Raw mass spectrometry data for proteolytic mapping of fibrinogen, vimentin, and hnRNP A2/B1 by cathepsins B, S, and H (sheets 1-6); citrullination site mapping of fibrinogen and vimentin by trypsin digestion (sheets 7-8); and the natural antigen processing assay with native, PAD2-citrullinated (PAD2-cit), and PAD4-citrullinated (PAD4-cit) fibrinogen (sheets 9-11).
For the molecule B1, the Modifications result is “Deamidated [R42; R84; R114; R123; R129; R160; R216; R218; R258; R263; R271; R287; R308; R510; R512; R547; R573; R591]”.
Regarding B2, the Modifications entry is “Deamidated [R499; R516; R522; R560]”.
Same read-out and setting: as for B3, the entry is “Deamidated [R240; R250; R260]”; as for B4, “Deamidated [R113; R134; R281; R290; R309; R409; R425]”.
As to B5, the Modifications entry is “Deamidated [R159; R329; R331; R485; R493]”.
Take B6: the Modifications result is “Deamidated [R171; R343]”.
Still for that read-out and setting: the result for B7 reads “Deamidated [R123; R137; R156; R205; R212; R218; R372; R374; R383; R394; R419; R427; R441; R484; R488; R495; R536; R544; R550; R555; R609; R639; R650]”; that for B8, “Deamidated [R184]”; that for B9, “Deamidated [R64; R84; R105; R339; R373; R422]”.

The next data set has as its system recombinant human PAD2 and PAD4. Nature of the data set: Citrullination site mapping by trypsin digestion and mass spectrometry; protein-level modifications over native, PAD2- and PAD4-citrullinated samples combined. The conditions noted are these: trypsin digest, Sequest HT search; co-identified proteins in the fibrinogen and vimentin samples (native, PAD2-cit, PAD4-cit); not split by sample or enzyme. It is filed as biochemical.
Text: as §1
Consider B10, for which the “Modifications (Deamidated [R...] = citrullinated arginine positions found)” value was “Deamidated [R56]”.
